The values that follow come from publication PMC10849593 (Science Advances, 2024).

The target in series [1] is MutLβ (MLH1-PMS1 heterodimer) carrying a 6xHis tag on the PMS1 subunit (human, UniProt P40692;P54277). Kind of series: pull-down.
The target in series [2] is T1, MutSβ WT, MSH3 subunit;MutSβ, MSH2 subunit (human;human?, UniProt P20585;P43246 1-1137;1-934, |). Kind of series: pull-down.
Series [3] deals with T1, MutSβ WT, MSH3 subunit;MutSβ, MSH2 …. The series is described as follows: EMSA.

B1: Flag-tagged FANCJ (enzyme)
chain: MSSMWSEYTIGGVKIYFPYKAYPSQLAMMNSILRGLNSKQHCLLESPTGSGKSLALLCSALAWQQSLSGKPADEGVSEKAEVQLSCCCACHSKDFTNNDMNQGTSRHFNYPSTPPSERNGTSSTCQDSPEKTTLAAKLSAKKQASIYRDENDDFQVEKKRIRPLETTQQIRKRHCFGTEVHNLDAKVDSGKTVKLNSPLEKINSFSPQKPPGHCSRCCCSTKQGNSQESSNTIKKDHTGKSKIPKIYFGTRTHKQIAQITRELRRTAYSGVPMTILSSRDHTCVHPEVVGNFNRNEKCMELLDGKNGKSCYFYHGVHKISDQHTLQTFQGMCKAWDIEELVSLGKKLKACPYYTARELIQDADIIFCPYNYLLDAQIRESMDLNLKEQVVILDEAHNIEDCARESASYSVTEVQLRFARDELDSMVNNNIRKKDHEPLRAVCCSLINWLEANAEYLVERDYESACKIWSGNEMLLTLHKMGITTATFPILQGHFSAVLQKEEKISPIYGKEEAREVPVISASTQIMLKGLFMVLDYLFRQNSRFADDYKIAIQQTYSWTNQIDISDKNGLLVLPKNKKRSRQKTAVHVLNFWCLNPAVAFSDINGKVQTIVLTSGTLSPMKSFSSELGVTFTIQLEANHIIKNSQVWVGTIGSGPKGRNLCATFQNTETFEFQDEVGALLLSVCQTVSQGILCFLPSYKLLEKLKERWLSTGLWHNLELVKTVIVEPQGGEKTNFDELLQVYYDAIKYKGEKDGALLVAVCRGKVSEGLDFSDDNARAVITIGIPFPNVKDLQVELKRQYNDHHSKLRGLLPGRQWYEIQAYRALNQALGRCIRHRNDWGALILVDDRFRNNPSRYISGLSKWVRQQIQHHSTFESALESLAEFSKKHQKVLNVSIKDRTNIQDNESTLEVTSLKYSTSPYLLEAASHLSPENFVEDEAKICVQELQCPKIITKNSPLPSSIISRKEKNDPVFLEEAGKAEKIVISRSTSPTFNKQTKRVSWSSFNSLGQYFTGKIPKATPELGSSENSASSPPRFKTEKMESKTVLPFTDKCESSNLTVNTSFGSCPQSETIISSLKIDATLTRKNHSEHPLCSEEALDPDIELSLVSEEDKQSTSNRDFETEAEDESIYFTPELYDPEDTDEEKNDLAETDRGNRLANNSDCILAKDLFEIRTIKEVDSAREVKAEDCIDTKLNGILHIEESKIDDIDGNVKTTWINELELGKTHEIEIKNFKPSPSKNKGMFPGFK
In the case of B1, the binding result in series [1] is reported as “binds”.

B2: b66-G4 (structured_DNA)
DNA: TTTTTTTTTTTTTTTTTTTTTTTTTTTTTTTTTTTTTTTTTTTTTGGGTGGGTGGGTGGGTTTTTT
In the case of B2, in series [2], the binding result was “binds”.

B3: CEB1 G4 (structured_DNA)
DNA: AGGGGGGAGGGAGGGTGG
As for B3, the binding result in series [3] was “binds”.
